Results published in the supplement of paper PMC9112550, “Optimization of the antimicrobial peptide Bac7 by deep mutational scanning” (BMC Biology, 2022).

Test system: Escherichia coli TOP10
Experiment: shrunken log2 fold change of peptide-encoding DNA abundance (4.5 h post-induction vs induction); higher = less antimicrobial activity (less host growth inhibition)
Settings: time post-induction: 4.5 h; library: site-saturation at positions 5, 18, 19, 20
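Also: peptides expressed intracellularly from a pBAD plasmid library in pooled LB shake-flask culture, induced with 0.3% L-arabinose, DNA abundance read by NGS, three biological replicates, DESeq2 with apeglm shrinkage.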

Sequence | shrunken log2 fold change
RRIRPRPPRLPRPRPRPCCNPRP | -0.301
RRIRPRPPRLPRPRPRPCCQPRP | -0.516
RRIRPRPPRLPRPRPRPCCWPRP | 0.81
RRIRPRPPRLPRPRPRPCDYPRP | 0.218
RRIRPRPPRLPRPRPRPCEEPRP | 0.205
RRIRPRPPRLPRPRPRPCEIPRP | 0.0471
RRIRPRPPRLPRPRPRPCGCPRP | 0.098
RRIRPRPPRLPRPRPRPCGDPRP | 0.078
RRIRPRPPRLPRPRPRPCHDPRP | -0.097
RRIRPRPPRLPRPRPRPCHTPRP | -0.498
RRIRPRPPRLPRPRPRPCINPRP | -0.726
RRIRPRPPRLPRPRPRPCITPRP | -0.373
RRIRPRPPRLPRPRPRPCKAPRP | -0.00218
RRIRPRPPRLPRPRPRPCKYPRP | -0.499
RRIRPRPPRLPRPRPRPCLIPRP | -0.129
RRIRPRPPRLPRPRPRPCLSPRP | -0.143
RRIRPRPPRLPRPRPRPCMDPRP | -0.561
RRIRPRPPRLPRPRPRPCMLPRP | -0.663
RRIRPRPPRLPRPRPRPCNGPRP | -0.202
RRIRPRPPRLPRPRPRPCPAPRP | -0.0349
RRIRPRPPRLPRPRPRPCQCPRP | -0.0627
RRIRPRPPRLPRPRPRPCRAPRP | 0.0858
RRIRPRPPRLPRPRPRPCRMPRP | -0.0012
RRIRPRPPRLPRPRPRPCSYPRP | -0.858
RRIRPRPPRLPRPRPRPCTCPRP | -0.049

Sequence | shrunken log2 fold change
RRIRPRPPRLPRPRPRPCTHPRP | -0.0646
RRIRPRPPRLPRPRPRPCTNPRP | -0.0219
RRIRPRPPRLPRPRPRPCTVPRP | 0.0392
RRIRPRPPRLPRPRPRPCWWPRP | 0.742
RRIRPRPPRLPRPRPRPCYMPRP | -1.12
RRIRPRPPRLPRPRPRPDCIPRP | -0.391
RRIRPRPPRLPRPRPRPDCSPRP | 0.152
RRIRPRPPRLPRPRPRPDENPRP | -0.0444
RRIRPRPPRLPRPRPRPDERPRP | -0.0865
RRIRPRPPRLPRPRPRPDGQPRP | 0.204
RRIRPRPPRLPRPRPRPDGTPRP | -0.122
RRIRPRPPRLPRPRPRPDGVPRP | 0.14
RRIRPRPPRLPRPRPRPDIPPRP | -0.219
RRIRPRPPRLPRPRPRPDIQPRP | -0.222
RRIRPRPPRLPRPRPRPDKVPRP | -0.249
RRIRPRPPRLPRPRPRPDKWPRP | -0.0254
RRIRPRPPRLPRPRPRPDKYPRP | -0.743
RRIRPRPPRLPRPRPRPDMDPRP | -0.21
RRIRPRPPRLPRPRPRPDNDPRP | 0.0931
RRIRPRPPRLPRPRPRPDRWPRP | 0.219
RRIRPRPPRLPRPRPRPDWLPRP | 0.288
RRIRPRPPRLPRPRPRPDYPPRP | -0.0173
RRIRPRPPRLPRPRPRPDYYPRP | -0.346
RRIRPRPPRLPRPRPRPEACPRP | 0.321
RRIRPRPPRLPRPRPRPEASPRP | 0.0221

Sequence | shrunken log2 fold change
RRIRPRPPRLPRPRPRPECAPRP | 0.698
RRIRPRPPRLPRPRPRPEDSPRP | 0.159
RRIRPRPPRLPRPRPRPEDWPRP | 0.391
RRIRPRPPRLPRPRPRPEEAPRP | 0.0763
RRIRPRPPRLPRPRPRPEEYPRP | 0.00398
RRIRPRPPRLPRPRPRPEFIPRP | -0.117
RRIRPRPPRLPRPRPRPEGWPRP | 1.82
RRIRPRPPRLPRPRPRPEHAPRP | 0.197
RRIRPRPPRLPRPRPRPEKAPRP | 0.385
RRIRPRPPRLPRPRPRPEKFPRP | -0.181
RRIRPRPPRLPRPRPRPEKMPRP | 0.742
RRIRPRPPRLPRPRPRPELEPRP | 0.219
RRIRPRPPRLPRPRPRPEMSPRP | 0.147
RRIRPRPPRLPRPRPRPENCPRP | 0.151
RRIRPRPPRLPRPRPRPENLPRP | -0.278
RRIRPRPPRLPRPRPRPENNPRP | -0.119
RRIRPRPPRLPRPRPRPEPIPRP | 0.26
RRIRPRPPRLPRPRPRPEPQPRP | 0.268
RRIRPRPPRLPRPRPRPEQFPRP | -0.0226
RRIRPRPPRLPRPRPRPERMPRP | 0.122
RRIRPRPPRLPRPRPRPESAPRP | 0.396
RRIRPRPPRLPRPRPRPESIPRP | -0.0804
RRIRPRPPRLPRPRPRPETNPRP | 0.192
RRIRPRPPRLPRPRPRPEVIPRP | 0.0141
RRIRPRPPRLPRPRPRPEWDPRP | 0.269

Sequence | shrunken log2 fold change
RRIRPRPPRLPRPRPRPEYGPRP | -0.167
RRIRPRPPRLPRPRPRPEYLPRP | 0.0461
RRIRPRPPRLPRPRPRPFAIPRP | -0.232
RRIRPRPPRLPRPRPRPFAYPRP | -0.135
RRIRPRPPRLPRPRPRPFCFPRP | 0.337
RRIRPRPPRLPRPRPRPFDRPRP | 0.0133
RRIRPRPPRLPRPRPRPFDVPRP | 0.0778
RRIRPRPPRLPRPRPRPFEEPRP | -0.00852
RRIRPRPPRLPRPRPRPFEPPRP | 0.232
RRIRPRPPRLPRPRPRPFETPRP | -0.117
RRIRPRPPRLPRPRPRPFGPPRP | -0.083
RRIRPRPPRLPRPRPRPFIKPRP | -0.926
RRIRPRPPRLPRPRPRPFISPRP | -0.706
RRIRPRPPRLPRPRPRPFKPPRP | -0.387
RRIRPRPPRLPRPRPRPFLAPRP | 0.0316
RRIRPRPPRLPRPRPRPFLEPRP | -0.214
RRIRPRPPRLPRPRPRPFLMPRP | -0.349
RRIRPRPPRLPRPRPRPFLSPRP | -0.312
RRIRPRPPRLPRPRPRPFNAPRP | -0.287
RRIRPRPPRLPRPRPRPFQCPRP | -0.0376
RRIRPRPPRLPRPRPRPFQEPRP | -0.185
RRIRPRPPRLPRPRPRPFQHPRP | -0.00804
RRIRPRPPRLPRPRPRPFQMPRP | -0.0867
RRIRPRPPRLPRPRPRPFRRPRP | 0.0448
RRIRPRPPRLPRPRPRPFSSPRP | -0.322

Sequence | shrunken log2 fold change
RRIRPRPPRLPRPRPRPFTSPRP | -0.512
RRIRPRPPRLPRPRPRPFWMPRP | -0.00291
RRIRPRPPRLPRPRPRPFWPPRP | 0.199
RRIRPRPPRLPRPRPRPGALPRP | 0.243
RRIRPRPPRLPRPRPRPGAQPRP | 0.198
RRIRPRPPRLPRPRPRPGASPRP | 0.344
RRIRPRPPRLPRPRPRPGAWPRP | 0.132
RRIRPRPPRLPRPRPRPGCAPRP | 1.55
RRIRPRPPRLPRPRPRPGDVPRP | 0.145
RRIRPRPPRLPRPRPRPGFFPRP | 0.216
RRIRPRPPRLPRPRPRPGFHPRP | -0.0164
RRIRPRPPRLPRPRPRPGFLPRP | 0.167
RRIRPRPPRLPRPRPRPGGVPRP | 0.567
RRIRPRPPRLPRPRPRPGHAPRP | 0.461
RRIRPRPPRLPRPRPRPGHEPRP | -0.202
RRIRPRPPRLPRPRPRPGHQPRP | 0.153
RRIRPRPPRLPRPRPRPGHSPRP | -0.0921
RRIRPRPPRLPRPRPRPGIEPRP | -0.00839
RRIRPRPPRLPRPRPRPGIHPRP | -0.137
RRIRPRPPRLPRPRPRPGIKPRP | -0.0194
RRIRPRPPRLPRPRPRPGINPRP | -0.178
RRIRPRPPRLPRPRPRPGIWPRP | 0.157
RRIRPRPPRLPRPRPRPGKEPRP | 0.0995
RRIRPRPPRLPRPRPRPGKHPRP | -0.141
RRIRPRPPRLPRPRPRPGKPPRP | 0.306

Sequence | shrunken log2 fold change
RRIRPRPPRLPRPRPRPGLYPRP | -0.132
RRIRPRPPRLPRPRPRPGMFPRP | -0.0259
RRIRPRPPRLPRPRPRPGMKPRP | -0.257
RRIRPRPPRLPRPRPRPGREPRP | 2.45
RRIRPRPPRLPRPRPRPGRPPRP | 0.155
RRIRPRPPRLPRPRPRPGRSPRP | 0.0919
RRIRPRPPRLPRPRPRPGSCPRP | 0.111
RRIRPRPPRLPRPRPRPGSYPRP | 0.0254
RRIRPRPPRLPRPRPRPGVCPRP | 0.428
RRIRPRPPRLPRPRPRPGWEPRP | 0.462
RRIRPRPPRLPRPRPRPGWRPRP | 0.438
RRIRPRPPRLPRPRPRPGWYPRP | 0.075
RRIRPRPPRLPRPRPRPHAKPRP | 1.39
RRIRPRPPRLPRPRPRPHDSPRP | -0.134
RRIRPRPPRLPRPRPRPHDWPRP | -0.0184
RRIRPRPPRLPRPRPRPHEEPRP | -0.000777
RRIRPRPPRLPRPRPRPHEPPRP | 0.239
RRIRPRPPRLPRPRPRPHGIPRP | 0.0828
RRIRPRPPRLPRPRPRPHHCPRP | -0.257
RRIRPRPPRLPRPRPRPHHEPRP | -0.066
RRIRPRPPRLPRPRPRPHHIPRP | -0.544
RRIRPRPPRLPRPRPRPHHTPRP | -0.617
RRIRPRPPRLPRPRPRPHIYPRP | -0.576
RRIRPRPPRLPRPRPRPHLAPRP | 0.0568
RRIRPRPPRLPRPRPRPHMCPRP | -0.082
